Data as given in PMC3226482 (Molecular Biology of the Cell, 2011).

Target: T1, karyopherin β2 (human, UniProt Q92973 1-898)
T1 sequence: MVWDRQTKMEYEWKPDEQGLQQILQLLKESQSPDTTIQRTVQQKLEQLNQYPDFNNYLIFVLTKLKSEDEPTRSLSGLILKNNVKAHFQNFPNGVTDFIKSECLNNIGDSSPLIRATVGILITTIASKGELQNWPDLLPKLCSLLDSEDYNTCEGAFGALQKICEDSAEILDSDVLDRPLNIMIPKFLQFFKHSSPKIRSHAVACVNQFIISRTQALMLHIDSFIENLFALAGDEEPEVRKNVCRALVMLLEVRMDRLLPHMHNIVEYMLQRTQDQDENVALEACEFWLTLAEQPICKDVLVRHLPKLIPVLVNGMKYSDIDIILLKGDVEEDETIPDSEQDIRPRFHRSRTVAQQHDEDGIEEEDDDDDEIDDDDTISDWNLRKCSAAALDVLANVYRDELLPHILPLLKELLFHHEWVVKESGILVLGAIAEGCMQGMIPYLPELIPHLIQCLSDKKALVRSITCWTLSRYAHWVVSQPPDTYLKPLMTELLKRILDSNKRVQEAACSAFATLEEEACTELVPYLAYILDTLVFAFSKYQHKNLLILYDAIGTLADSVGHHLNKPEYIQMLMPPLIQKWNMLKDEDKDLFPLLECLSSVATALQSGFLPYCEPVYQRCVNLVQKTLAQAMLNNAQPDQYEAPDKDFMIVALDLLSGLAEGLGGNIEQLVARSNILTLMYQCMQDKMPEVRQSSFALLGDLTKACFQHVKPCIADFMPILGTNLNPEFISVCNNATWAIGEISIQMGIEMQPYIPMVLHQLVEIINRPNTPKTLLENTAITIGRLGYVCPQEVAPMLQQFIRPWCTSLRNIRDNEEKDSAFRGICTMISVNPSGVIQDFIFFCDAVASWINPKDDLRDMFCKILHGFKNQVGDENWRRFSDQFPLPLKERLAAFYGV
Experiment: ITC

B1: hsNXF1 fragment, residues 1-92 (domain or fragment)
chain: MADEGKSYSEHDDERVNFPQRKKKGRGPFRWKYGEGNRRSGRGGSGIRSSRLEEDDGDVAMSDAQDGPRVRYNPYTTRPNRRGDTWHDRDRI
For B1, the Kd was 54 nM.
